Target: recombinant TGFβ1 (R and D Systems) (UniProt P01137 279-390)
Assay: method not stated

recombinant TGFβ1 (R and D Systems), sequence (P01137 279-390 limits assumed): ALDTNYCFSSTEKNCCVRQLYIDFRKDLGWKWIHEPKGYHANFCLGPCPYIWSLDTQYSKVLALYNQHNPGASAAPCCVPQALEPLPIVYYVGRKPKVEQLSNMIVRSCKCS

B1: 31G9 scFv (scFv)
chain: QVQLVQSGGGVVQPGRSLRLSCAASGFTFSSYGMHWVRQAPGKGLEWVAVISYDGSIKYYADSVKGRFTISRDNSKNTLYLQMNSLRAEDTAVYYCARTGEYSGYDTSGVELWGQGTTVTVSSGGGGSGGGGSGGGGSDIVMTQSPSTLSASVGDRVTITCRASQGISSWLAWYQQKPGRAPKVLIYKASTLESGVPSRFSGSGSGTDFTLTISSLQPEDFATYYCQQSYSTPWTFGQGTKLEIKR
Kd: 1.2 nM

Source: US6342588 (CAMBRIDGE ANTIBODY TECHNOLOGY, dated 2002)
